Measurements reported in paper PMC12703665, “A Trifunctional, Rare-Earth Theranostic Chelator Platform to Enable Diagnostic Nuclear Imaging, Surgical Resection, and Radiotherapy” (Journal of the American Chemical Society, 2025).

How the values were obtained:
[1] = LogD7.4 lipophilicity measurements (1-octanol/DPBS); format: physicochemical; conditions: 86Y-labeled tracer, 1-octanol/DPBS pH 7.4
Procedure: Figure S49. Chromatographic analysis of [177Lu]Lu-PSMA-617 and its corresponding non-radioactive reference complex. Absorbance of non-radioactive samples was monitored at 254 nm.
[161Tb]TbCl3 (9.34 µL, 4.0 mCi) and PSMA-617 (12.2 µL, 9.80 µM) were dissolved in a mixture of NaOAc buffer (20.0 µL, 1 M, pH 5.5), DMSO (20.0 µL) and water (38.4 µL). The resulting mixture was vortexed and heated at 80 °C for 20 minutes. Quantitative labeling was confirmed via radio-HPLC (Method D, Rt = 7.73 min – Absorbance monitored at 254 nm).
Figure S50. Chromatographic analysis of [161Tb]Tb-PSMA-617 and its corresponding non-radioactive […]
4.3 LogD7.4 Lipophilicity Measurements pepa-pic2, mepa-pic2, pepa2-pic and pepa2-pic-PSMA were radiolabeled with [86Y]YCl3 and formulated in DPBS 1X pH 7.4 at a concentration of 25-29 µCi/mL. […] Samples were centrifuged for 5 min at 5000 rpm to separate (also on this page, place not known: 02468101214161820 Time (min) Normalized Absorbance (a.u) Normalized Counts (cps) 02468101214161820 Time (min) Normalized Absorbance (a.u) Normalized Counts (cps)) […]
both layers. […] LogD7.4 values calculated according […]
Female BALB/c mice were purchased from Jackson Laboratory. Biodistribution profiles of Y-86 labeled mepa-pic2, pepa-pic2 and […] were first evaluated in healthy naïve mice. […]
Table S1. […] Values expressed as % ID/g. Error expressed as ± 1 SD for n = 4. […]

[2] = tested on: PC-3 PIP/flu (PSMA+/PSMA–) tumor xenografts; test: in vivo
Procedure: For in vivo evaluation, athymic nude mice-bearing bilateral PC-3 PIP/flu (PSMA^+/PSMA^–) tumor xenografts were used (Figure ).
5.1.1 Urine metabolite analysis
Metabolite analysis was performed by analyzing aliquots of 100 µL of mouse urine collected during biodistribution studies. If the collected urine volume was less than 100 µL, 1X DPBS was added in order to bring it up to a final volume of 100 µL. In cases where the radioactivity present in urine decayed to levels too low for detection by HPLC, fractions eluted from the radioHPLC were collected every 30 seconds, and the amount of radioactivity was estimated via gamma counting (Hidex Automatic Gamma Counter). The chromatogram was then reconstructed by plotting the recorded counts per minute recorded for each fraction […]
5.2 In vitro optical imaging
Tumor tissues were harvested from male, nude, athymic mice bearing xenografts from PC3-PIP (PSMA+) and PC3-flu (PSMA-) were fixed for (24) hours in 10% neutral buffered formalin, processed and embedded into paraffin blocks. Tissues were sectioned at 5µm, dried and then deparaffinized with a 25-minute oven bake at 60°C, followed by a series of xylene and alcohol washes
Antigens were prepared in PerkinElmer’s 1X Antigen Retrieval pH 9.0 (AR900250ML) for 8 minutes in the microwave. Tissue sections were blocked with 1X Antibody Diluent/Block buffer (Akoya).
Ab-PSMA, natEu-pepa-pic2-C-Hex-KuE and DAPI staining.
Tissues were stained with Ab-PSMA (Ventana 760-6076; 11.75 µg/mL; 100uL per slide) for 30 minutes at room temperature. Slides were washed with TBS-T and secondary goat anti-rabbit was applied for 10 minutes at room temperature. Slides were washed with TBS-T and Akoya’s Opal dye 520 was applied for 10 minutes at room temperature. Antigen retrieval and blocking steps were performed again.
An aqueous solution of natEu-pepa-pic2-C-Hex-KuE (10 µM) was diluted at 1:1 with 1X Diluent/Block (Akoya) and 100 µL were applied per slide for 2 hours at room temperature. For DAPI staining, DAPI working solution (Akoya) was applied for 10 minutes at room temperature before mounting with ProLong™ Gold Antifade Mountant. Slides were imaged by Nuance Multispectral Scope at 20x objective.
5.3 In vivo biodistribution in PSMA +/- mice models, PET-CT and SPECT imaging.
Male, nude, athymic mice were purchased from Jackson Laboratory. Ten days preceding the imaging study, mice were implanted with 1 × 10^6 cells (PC-3 PIP on the right, PC-3 flu on the left shoulder) in 100 µL of a 1:2 mixture of DPBS 1X/matrigel matrix subcutaneously.
A solution of 100 µL of labeled radiotracer was administered via tail vein injection into 8–10-week-old male nude mice (n = 4 per cohort) bearing PSMA+/- tumors.
For biodistribution studies, mice were euthanized at 2 hours (n=4) post-injection of the radio tracer. Organs were extracted, intestinal content removed, and activity assessed via a gamma counter. Biodistribution analysis values are represented as percentage of injected dose per gram of organ weight (% ID/g).

[3] = 2 h post injection, n = 4, listed as [86Y]YIII-pepa-pic2-C-Hex-KuE

COCCOCCOCCOc1ccc(C#Cc2cc(CN3CCN(Cc4cccc(C(=O)O)n4)CCN(Cc4cc(SC[C@H](N)C(=O)NCCCCCC(=O)NCCCC[C@H](NC(=O)N[C@@H](CCC(=O)O)C(=O)O)C(=O)O)cc(C(=O)O)n4)CC3)nc(C(=O)O)c2)cc1 [[86Y]Y-pepa-pic2-C-Hex-KuE, metal not drawn]
logD7.4 [1]: −2.98
Blood [2, 3]: 1.22 ± 1.01 % ID/g
Bone [2, 3]: 0.74 ± 0.21 % ID/g
Heart [2, 3]: 0.54 ± 0.25 % ID/g
Large Intestine [2, 3]: 1.64 ± 0.79 % ID/g
Liver [2, 3]: 1.00 ± 0.32 % ID/g
Lungs [2, 3]: 1.96 ± 0.84 % ID/g
Muscle [2, 3]: 0.35 ± 0.13 % ID/g
Small Intestine [2, 3]: 0.59 ± 0.25 % ID/g
Spleen [2, 3]: 2.43 ± 1.34 % ID/g
Tumor + ([2]; PSMA+ tumor, 2 h post injection, n = 4, listed as [86Y]YIII-pepa-pic2-C-Hex-KuE): 12.53 ± 2.95 % ID/g
Tumor - ([2]; PSMA- tumor, 2 h post injection, n = 4, listed as [86Y]YIII-pepa-pic2-C-Hex-KuE): 1.20 ±0.45 % ID/g
enhancement of probe localization in kidneys compared to tumor tissue ([2]; imaging and biodistribution data): 6–10 fold
